# Results taken from the supplement of paper PMC10567573.
# B1: FAM189A2 (parent)
# chain: PRCDLVDLGEGKICFCCEEFQPAK
# B2: CDC25B (parent)
# chain: KSPIAPCSLDKRVILIFHCEFSSE
# Variants of: B1
# Test: protein stability index of a GFP-peptide fusion (GPS, HEK-293T) (PSI 1-6); higher = more stable
# Conditions: c terminus: a fixed tail appended
# 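Also: lentivirally expressed fusions sorted by FACS into six bins by GFP to DsRed ratio, PSI derived from sequencing read proportions per bin multiplied by bin number.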
row,Variant,protein stability index
1,D4V,2.5
2,D4C,2.74
3,D4R,3.56
4,D4K,3.44
5,D4E,3.27
6,D4F,2.11
7,D4I,1.57
8,D4A,2.11
9,D4W,1.16
10,D4P,3.39
11,D4G,2.26
12,D4M,2.46
13,D4H,2.85
14,D4Q,3.44
15,D4N,4.71
16,D4T,2.7
17,D4L,1.67
18,D4Y,1.86
19,D4S,2.7
20,L5D,3.95
21,L5F,2.6
22,L5C,4.89

row,Variant,protein stability index
1,L5H,4.84
2,L5G,4.44
3,L5M,2.86
4,L5E,3.84
5,L5K,4.28
6,L5I,3.13
7,L5A,3.98
8,C3K,3.07
9,C3M,2.3
10,C3D,3.53
11,C3P,2.89
12,C3V,3.33
13,C3G,2.98
14,C3E,3.55
15,C3A,2.01
16,C3S,2.43
17,C3W,2.69
18,C3L,2.97
19,C3Q,3.26
20,C3I,2.05
21,C3H,3.31
22,C3R,2.63

row,Variant,protein stability index
1,C3F,2.22
2,C3Y,1.91
3,C3N,2.25
4,C3T,2.44
5,P1H,4.03
6,P1D,2.67
7,P1W,2.43
8,P1T,2.63
9,P1S,3
10,P1K,3.14
11,P1G,3.14
12,P1E,3.16
13,P1Y,1.91
14,P1Q,2.9
15,P1L,2.84
16,P1F,1.85
17,P1N,3.39
18,P1I,1.78
19,P1R,2.43
20,P1C,2.83
21,P1A,2.24
22,P1M,1.86

row,Variant,protein stability index
1,P1V,1.87
2,R2S,3.06
3,R2T,2.94
4,R2C,3.55
5,R2H,2.58
6,R2I,2.83
7,R2K,2.46
8,R2E,3.35
9,R2P,3.8
10,R2G,3.18
11,R2F,1.65
12,R2Y,2.25
13,R2A,2.83
14,R2M,2.41
15,R2Q,3.13
16,R2V,2.17
17,R2N,2.9
18,R2D,3.72
19,R2W,1.98
20,R2L,2.8

# Variants of: B2
# Test: as above
# Conditions: c terminus: a fixed tail appended
row,Variant,protein stability index
1,S23M,2.11
2,C7P,2.65
3,C7H,3.31
4,C7T,2.55
5,C7L,3.92
6,H18G,2.81
7,H18N,2.26
8,H18C,3.24
9,H18Y,2.5
10,E24D,2.77
11,F21G,2.94
12,F21Q,2.53
13,F21H,2.91
14,F21P,2.66
15,F21C,2.97
16,F21R,2.15
17,S22T,2.88
18,S22D,3.4
19,S22M,2.66
20,S22P,2.1
21,S22I,1.34

row,Variant,protein stability index
1,P3L,3.29
2,P3Q,3.1
3,L9F,2.64
4,L9C,2.46
5,L9P,3.63
6,L9Y,3.94
7,L9I,4.08
8,L9N,2.78
9,P6C,2.97
10,I14S,1.94
11,I14Q,1.1
12,I14A,2.65
13,I14V,2.87
14,I14L,1.95
15,I14R,1.79
16,I14E,2.07
17,I14H,3.76
18,I4K,3.59
19,I4M,4.09
20,D10C,2.23
21,D10Q,1.71

row,Variant,protein stability index
1,I16K,1.39
2,I16G,1.4
3,I16D,2.92
4,I16P,3.02
5,I16M,2.25
6,F17G,1.39
7,F17M,1.66
8,F17H,1.64
9,F17V,4.17
10,F17Q,2.44
11,C19H,1.89
12,C19A,3.06
13,C19T,3.92
14,E20H,2.2
15,E20V,2.73
16,E20P,3.36
17,E20I,2.55
18,E20A,1.82
19,K1G,3.01
20,K11I,3.79
21,K11C,2.52

row,Variant,protein stability index
1,S2A,2.37
2,S2F,3.02
3,A5Q,1.42
4,A5N,2.85
5,A5H,2.3
6,A5M,1.72
7,V13I,3.36
8,V13C,1.21
9,V13S,3.15
10,R12H,2.79
11,R12K,3.98
12,R12I,3.03
13,R12L,3.04
14,L15N,2.21
15,L15P,2.28
16,L15Q,1.84
17,L15F,2.88
18,L15Y,2.66
